What was measured:
Conditions in all cases: 20 nM; 72 h
MCF10A [1] = assay: percent viability (nuclei count relative to siNT); higher = more viable cells
Protocol: (§1)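 After 72 h, cells were fixed and stained with Hoechst and anti-fibrillarin, and nucleoli per nucleus were counted with CellProfiler. Values are plate-adjusted percent effect for the one-nucleolus and 5+ nucleoli phenotypes, normalised to siNT (0%) and to the positive controls siNOL11 or siKIF11 (100%), as the mean of biological triplicates. Percent viability is the nuclei count relative to siNT.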

MCF10A [2] = assay: one-nucleolus phenotype percent effect (relative to siNT 0% and siNOL11 100%); higher = more cells with one nucleolus (ribosome biogenesis inhibition)
Protocol: as §1

MCF10A [3] = assay: 5+ nucleoli phenotype percent effect (relative to siNT 0% and siKIF11 100%); higher = more cells with five or more nucleoli
Protocol: as §1

Sequence	percent viability (MCF10A [1]) [%]	one-nucleolus phenotype percent effect (MCF10A [2]) [%]	5+ nucleoli phenotype percent effect (MCF10A [3]) [%]
CUCUAGAGGGAAGCACUUUCUG [hsa-miR-518d-5p]	57.8	-4.59	5.06
UUUCUAUUUCUCAGUGGGGCUC [hsa-miR-4482-3p]	21.2	31.6	0.737
UUUGAGGCUACAGUGAGAUGUG [hsa-miR-1304-5p]	68.3	0.012	15.4
CUGAUAAGAACAGAGGCCCAGAU [hsa-miR-3161]	34.7	18.2	-24.6
AAGCAAUACUGUUACCUGAAAU [hsa-miR-3942-5p]	36.6	-6.02	13.9
ACUGGGAAGAGGAGCUGAGGGA [hsa-miR-4646-5p]	35	21.9	-6.37
AGGGGUGUGGAAAGAGGCAGAACA [hsa-miR-6747-5p]	40	-4.28	37.7
GCUGCGCUUGGAUUUCGUCCCC [hsa-miR-191-3p]	71	5.27	5.48
GUGGAGUCCUGGGGAAUGGAGA [hsa-miR-3198]	25.5	22	-28.7
ACUGGACUUGGAGUCAGAAGAGUGG [hsa-miR-378c]	22.4	-8.35	-4.56
UGGCCCAAGACCUCAGACC [hsa-miR-7155-3p]	35.1	11.3	18.5
GUGUCUGGGCGGACAGCUGC [hsa-miR-1231]	39.3	62.4	-15.6
UCAUUUAUCUGUUGGGAAGCUA [hsa-miR-4729]	53.1	1.2	-14.5
UGCACAUGGCAACCUAGCUCCCA [hsa-miR-5589-3p]	45.2	6.29	-1.16
GUGAGGGCAUGCAGGCCUGGAUGGGG [hsa-miR-1226-5p]	114	-14.2	53.3
GUGGCUGCACUCACUUCCUUC [hsa-miR-647]	46	33.1	-9.97
CAGAUCAUGGGACUGUCUCAG [hsa-miR-5694]	66.3	-16.1	22.8
UUUGUAUGGAUAUGUGUGUGUAU [hsa-miR-3149]	37.6	2.3	-7.06

Sequence	percent viability (MCF10A [1]) [%]	one-nucleolus phenotype percent effect (MCF10A [2]) [%]	5+ nucleoli phenotype percent effect (MCF10A [3]) [%]
AAAGUGCAUCUUUUUAGAGGAU [hsa-miR-519c-3p]	119	-25.5	110
AUAGUCCGAGUAACGUCGGGGC [hsa-miR-6723-5p]	54	16.5	-28.9
AGAAGAUUGCAGAGUAAGUUCC [hsa-miR-4699-5p]	48.2	31.8	-32.9
UGCCUGGAACAUAGUAGGGACU [hsa-miR-3116]	23.8	2.45	-20.8
CAAAAGUAAUUGUGGAUUUUGU [hsa-miR-548n]	137	-23.6	52.2
UUGGGAUCAUUUUGCAUCCAUA [hsa-miR-450b-3p]	42.8	-1.71	-2.46
AUCAUACAAGGACAAUUUCUUU [hsa-miR-539-3p]	39.4	-9.28	-9.08
UGCCCCAUCUGUGCCCUGGGUAGGA [hsa-miR-3189-5p]	52.5	1.04	42.8
AGUGCCUGAGGGAGUAAGAG [hsa-miR-550a-3-5p]	79.3	3.47	-17.5
GAAGAUGGACGUACUUU [hsa-miR-4426]	28.5	31.4	-32.9
GCCCGAGAGGAUCCGUCCCUGC [hsa-miR-4740-3p]	65.9	-18.2	17.8
UGGCUUUUAACUUUGAUGGC [hsa-miR-3119]	17.4	56.7	-21.8
AGAGUCGGCGACGCCGCCAGC [hsa-miR-4785]	49.5	25.1	-30.3
GCAGUCCAUGGGCAUAUACAC [hsa-miR-455-3p]	112	-12.4	26.8
AGGAGAUCCUGGGUU [hsa-miR-3676-5p]	30.1	18.3	-13.3
UACGUCAUCGUUGUCAUCGUCA [hsa-miR-598]	151	-26.8	47.8
GCCUGCUGGGGUGGAACCUGGU [hsa-miR-370]	45.3	12.5	-25.5
AGGAGAAGUAAAGUAGAA [hsa-miR-4434]	74.7	-15.7	49.4
